From patent publication US20040072333A1, “Method of purifying lantibiotics” (ImmuCell Corporation, priority 2002, published 2004)
Where no end group is shown, it is not given here.

Assays:
trypsin [1] = assay: Tryptic digestion of nisin at pH 7.0, SDS-PAGE and HPLC; type: physicochemical; settings: pH 7.0, nisin to trypsin about 10:1 (w/w), 30° C., after 96 hr
Procedure: Nisin has two internal lysine residues that are potential targets of the proteolytic enzyme trypsin. To determine whether nisin could be digested by trypsin, a digestion reaction mixture was prepared where a nisin preparation, partially purified nisin from a fermentor run, was exposed to trypsin under conditions optimal for trypsin activity. These conditions included a reaction pH of 7.0 and a nisin to trypsin ratio of about 10:1 (w/w). Samples were incubated at 30° C. and aliqoutes were removed for analysis every 24 hr, beginning at time zero. […] After 96 hr of treatment, more than 90% of nisin was degraded.
Tryptic digestion of nisin (50 mg) was carried out in 50 ml of a buffer consisting of 25mM sodium acetate, 6 mM Tris acetate, 5 mM CaCl2, and pH 7.0. One ml of USP grade trypsin (5mg/ml) was added followed by incubation at 30° C. Thereafter, 500 μl aliqouts of trypsin were added at times 24, 48, 72, and 96 hours. At each time point in the experiment, 2 ml aliquots were removed for further analysis, of which […] was immediately plated on blood agar plates for determination of contamination. The remaining 1.8 ml was stored at −20° C. until the end of experiment for SDS-PAGE and HPLC analysis.

papain = biological target: T1, papain (Carica papaya, UniProt P00784); assay: Protease digestion with papain; type: physicochemical; settings: pH 5.80
T1 sequence (P00784 134-345): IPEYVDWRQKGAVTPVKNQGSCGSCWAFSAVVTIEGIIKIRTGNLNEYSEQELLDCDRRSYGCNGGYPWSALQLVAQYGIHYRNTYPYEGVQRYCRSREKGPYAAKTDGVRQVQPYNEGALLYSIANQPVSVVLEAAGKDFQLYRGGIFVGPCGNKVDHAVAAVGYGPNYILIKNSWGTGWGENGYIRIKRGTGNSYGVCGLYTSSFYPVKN
Procedure: (§1) Nisin is comparatively resistant to proteolysis by trypsin under the optimized conditions described above. To determine whether nisin is also resistant to other proteolytic enzymes under similar conditions, partially purified nisin was exposed to pepsin, thrombin, V8 protease (Endo Gluc), subtilisin, papain, thermolysin, or clostripain at pH 5.80. Pepsin exposure was also performed at pH 3.50. […] Pepsin at pH 5.80 and thrombin appeared ineffective against the impurities as well.
(§2) Digestion experiments using pepsin (EC3.4.23.1), thrombin (EC3.4.21.5), V8 protease (EC3.4.21.19), subtilisin (EC3.4.21.62), papain (EC3.4.22.2), thermolysin (EC3.4.24.27), and clostripain (EC3.4.22.8) were performed essentially as described for trypsin and at pH 5.80. Pepsin digestion was also performed at pH 3.50. For trypsin digestions using trypsin linked to a solid matrix (e.g. insoluble trypsin), 1.6 liters of partially purified nisin was prepared at 9.5 mg/ml in 10 mM Tris HCl and pH 5.50. Following the addition of 1.6 ml of TPCK-treated trypsin bound to beaded agarose (Sigma Chemical Company), the reaction mixture was incubated at 30° C. for 6 hours with frequent agitation. Insoluble trypsin was removed by centrifugation at approximately 4000×g for 7 minutes. The resultant supernatant containing nisin was prepared for HPLC analysis.

clostripain = biological target: T2, clostripain (Hathewaya histolytica, UniProt P09870); assay: Protease digestion with clostripain; type: physicochemical; settings: pH 5.80
T2 sequence (P09870 whole entry, looked up): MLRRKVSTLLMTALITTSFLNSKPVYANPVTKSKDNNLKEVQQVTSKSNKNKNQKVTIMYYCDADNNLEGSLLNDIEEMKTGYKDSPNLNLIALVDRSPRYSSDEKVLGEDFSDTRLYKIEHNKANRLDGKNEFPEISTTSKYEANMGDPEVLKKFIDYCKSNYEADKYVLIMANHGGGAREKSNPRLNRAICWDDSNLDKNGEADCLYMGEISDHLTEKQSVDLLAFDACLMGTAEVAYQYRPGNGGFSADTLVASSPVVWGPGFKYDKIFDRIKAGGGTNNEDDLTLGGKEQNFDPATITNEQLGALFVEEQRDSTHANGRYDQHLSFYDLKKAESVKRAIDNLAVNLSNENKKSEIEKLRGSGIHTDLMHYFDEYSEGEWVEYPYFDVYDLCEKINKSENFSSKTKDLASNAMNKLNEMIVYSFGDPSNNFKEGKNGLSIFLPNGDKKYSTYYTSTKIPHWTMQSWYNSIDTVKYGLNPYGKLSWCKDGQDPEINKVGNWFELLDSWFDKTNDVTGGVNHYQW
Procedure: as §1, §2

subtilisin = subtilisin (Bacillus licheniformis, UniProt P00780); assay: Protease digestion with subtilisin; type: physicochemical; settings: pH 5.80
Sequence of subtilisin (P00780 106-379): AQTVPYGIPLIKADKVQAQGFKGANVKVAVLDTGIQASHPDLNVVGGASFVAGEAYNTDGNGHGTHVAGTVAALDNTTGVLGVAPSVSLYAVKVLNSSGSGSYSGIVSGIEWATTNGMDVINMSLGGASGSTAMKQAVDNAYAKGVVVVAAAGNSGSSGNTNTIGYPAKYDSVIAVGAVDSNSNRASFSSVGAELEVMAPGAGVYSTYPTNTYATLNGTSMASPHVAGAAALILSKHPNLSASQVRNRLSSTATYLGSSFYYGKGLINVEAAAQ
Procedure: as §1, §2

[2] = biological target: T3, TPCK treated insoluble trypsin (Bos taurus, UniProt P00760); assay: Insoluble trypsin (bound to beaded agarose) digestion, HPLC; type: physicochemical; settings: 9.55 mg/ml, 1.6 ml insoluble trypsin on agarose, 6 hr, 30° C., trypsin removed by centrifugation
T3 construct: purchased Sigma Chemical Company
T3 sequence (P00760 24-246): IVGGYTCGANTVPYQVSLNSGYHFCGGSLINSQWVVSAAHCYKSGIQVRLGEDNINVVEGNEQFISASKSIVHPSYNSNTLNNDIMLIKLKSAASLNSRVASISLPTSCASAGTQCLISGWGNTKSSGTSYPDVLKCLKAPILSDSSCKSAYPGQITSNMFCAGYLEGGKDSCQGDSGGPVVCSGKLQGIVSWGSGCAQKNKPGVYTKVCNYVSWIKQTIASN
Procedure: To determine whether insoluble trypsin treatment of nisin preparations was also effective in digestion of impurities, but not nisin itself, 1.6 liters of partially purified nisin prepared at 9.55 mg/ml was treated with 1.6 ml of TPCK treated insoluble trypsin bound to beaded agarose. After 6 hr of incubation at 30° C., and following removal of insoluble trypsin by centrifugation, the overall nisin recovery was about 90%.
as §2

thermolysin = thermolysin (Bacillus thermoproteolyticus, UniProt P00800); assay: Protease digestion with thermolysin; type: physicochemical; settings: pH 5.80
Sequence of thermolysin (P00800 233-548): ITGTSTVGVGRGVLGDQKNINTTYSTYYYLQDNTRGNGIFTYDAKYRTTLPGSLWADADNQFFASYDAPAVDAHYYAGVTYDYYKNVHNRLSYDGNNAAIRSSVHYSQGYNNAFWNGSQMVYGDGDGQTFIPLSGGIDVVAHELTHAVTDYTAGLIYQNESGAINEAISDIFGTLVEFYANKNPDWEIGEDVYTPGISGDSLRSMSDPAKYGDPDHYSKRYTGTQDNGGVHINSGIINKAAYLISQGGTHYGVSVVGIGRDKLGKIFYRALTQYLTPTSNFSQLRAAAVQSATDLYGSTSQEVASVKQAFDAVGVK
Procedure: as §1, §2

thrombin = thrombin (Homo sapiens, UniProt P00734); assay: Protease digestion with thrombin; type: physicochemical; settings: pH 5.80
Procedure: as §1, §2

pepsin = assay: Protease digestion with pepsin; type: physicochemical
Procedure: as §1, §2

trypsin [3] = assay: Soluble trypsin digestion at low pH and low trypsin to nisin ratio, HPLC; type: physicochemical; settings: below pH 5.50, nisin 11 mg/ml, trypsin 27.5 μg/ml (400:1 w/w), overnight, room temperature
Procedure: Peptide analysis has identified over 40 peptides that co-purify with nisin. All of these peptides have been identified as being products of Lactococcus fermentation. Since it was determined that nisin, at neutral to slightly alkaline pH and high trypsin to nisin ratios, is subject to proteolysis by trypsin, conditions were altered in an attempt to identify conditions under which trypsin would not degrade nisin but would degrade the peptide impurities in the nisin sample. Reaction mixtures containing nisin preparations, at a concentration of 11 mg/ml, and USP grade trypsin at a concentration of 27.5 μg/ml, were incubated overnight at room temperature (400:1 w/w). The pH of the mixtures ranged from 5.25 to 6.5.
To further optimize the conditions for removal of peptide impurities from nisin preparations by tryptic digestion, two liters of partially purified nisin was prepared at 4.55 mg/ml and incubated with 25 mg of USP grade trypsin for 16 hrs at 30° C. in 10 mM citric acid, pH 5.80. […] Moreover, subsequent removal of trypsin using a molecular weight cut off membrane yielded a recovery of 87.5% nisin and 0.38% trypsin.
For treatment of nisin with soluble trypsin, 2 liters of partially purified nisin from a fermentation product was prepared at 4.55 mg/ml in 10 mM citric acid buffer and 5 mM CaCl2. […] Nisin recovery and purity was determined by SDS-PAGE and HPLC. […]

V8 protease (Endo Gluc) = V8 protease (Endo Gluc) (Staphylococcus aureus, UniProt P0C1U8); assay: Protease digestion with V8 protease; type: physicochemical; settings: pH 5.80
Sequence of V8 protease (Endo Gluc) (P0C1U8 69-336): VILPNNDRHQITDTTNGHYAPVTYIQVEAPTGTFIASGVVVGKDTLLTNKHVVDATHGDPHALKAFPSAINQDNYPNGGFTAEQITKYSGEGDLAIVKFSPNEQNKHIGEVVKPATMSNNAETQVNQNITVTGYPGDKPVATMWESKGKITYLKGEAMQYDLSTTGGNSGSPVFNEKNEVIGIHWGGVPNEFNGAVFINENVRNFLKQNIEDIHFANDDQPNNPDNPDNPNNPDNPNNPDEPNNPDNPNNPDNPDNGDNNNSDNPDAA
Procedure: as §1, §2

non-mastitic cows = assay: Mammary infusion, somatic cell count of quarter milk; type: in vivo
Procedure: Bovine intra-mammary infusion of impure nisin stimulates the production of high levels of somatic cells in milk as part of an inflammatory reaction.
Non-mastitic cows were treated with an infusion of vehicle, untreated, and trypsin-treated nisin (30 mg/10 ml) in the quarter after the 4th, 5th, and 6th milkings. The somatic cell count of the milk was recorded before, during, and after milking. High somatic cell counts were indicative of an inflammatory reaction. Statistical analysis was carried out using two sided t-Test comparisons with unequal variance.

[4] = tested on: mastitic isolate of Streptococcus agalactiae (strain #20); assay: Antibacterial 96 well plate assay; type: cell-based; settings: bacterial growth read as absorbance
Procedure: To confirm that the biological activity of nisin is also unaltered, in vitro bactericidal activity assay was performed. Trypsin-treated nisin was analyzed for antibacterial activity against a mastitic isolate of Streptococcus agalactiae (strain #20) in a 96 well plate assay and bacterial growth was read as absorbance readings on an ELISA reader.
Nisin activity was determined using an antibacterial assay against a mastitic isolate of Streptococcus agalactiae (IC 20) in a 96 well plate assay. Test samples were serially diluted into M17 10% lactose medium and then mixed with an equal volume of 10^4 cfu/ml. After 66 hr of incubation at room temperature, the plates were read on an ELISA reader at 450 nm. Wells containing bacterial growth gave high absorbance readings. The data was analyzed using a four-parameter curve-fitting software.

How did the “nisin degraded by trypsin” value (trypsin [1]) turn out when “nisin (ITSISLCTPGCKTGALMGCNMKTATCHCSIHVSK; cysteine pairing not given here; also: lantibiotic nisin-A, modified residues not placed; UniProt P13068 24-57, looked up) [lysine-rich lantibiotic, polypeptide antimicrobial agent with lanthionine and β-methyl-lanthionine residues, used as food preservative]” was run?
The value was “more than 90%”.

And the “proteolytic digestion of nisin by papain” value (papain)?
The value was “resistant”.

What about the “proteolytic digestion of nisin by clostripain” value (clostripain) of the same substance?
The value was “resistant”.

What about the “proteolytic digestion of nisin by subtilisin” value (subtilisin) of the same substance?
The value was “resistant”.

And the “overall nisin recovery after insoluble trypsin incubation” value [2]?
The value was “about 90%”.

What about the “proteolytic digestion of nisin by thermolysin” value (thermolysin) of the same substance?
Its value is “resistant”.

And the “proteolytic digestion of nisin by thrombin” value (thrombin)?
Its value is “resistant”.

And the “proteolytic digestion of nisin by pepsin” value (pepsin; pH 3.50)?
Its value is “did not digest nisin”.

What about the “proteolytic digestion of nisin by pepsin” value (pepsin; pH 5.80) of the same substance?
The value was “resistant”.

And the “hydrolysis of nisin by trypsin” value (trypsin [3])?
Its value is “minimal hydrolysis”.

And the “proteolytic digestion of nisin by V8 protease” value (V8 protease (Endo Gluc))?
Its value is “resistant”.

What does the source list for “trypsin/nisin: nisin preparation purified by selective trypsin digestion of peptide impurities (ITSISLCTPGCKTGALMGCNMKTATCHCSIHVSK; also: lantibiotic nisin-A: lanthionine thioether rings, Dha/Dhb, positions not given here; UniProt P13068 24-57, looked up)”?
somatic cell count of milk from treated quarters (inflammatory reaction), summary in words (non-mastitic cows; intra-mammary infusion of 30 mg, non-mastitic cows): much lower and is not statistically different from quarters treated with buffer alone; Somatic Cell Count of Quarter Milk, mean of group (non-mastitic cows; milking 1 (before treatments; infusions 30 mg/10 ml given after 4th, 5th, 6th milkings)): 10 X1000; Somatic Cell Count of Quarter Milk, mean of group (non-mastitic cows; milking 2 (before treatments)): 22 X1000; Somatic Cell Count of Quarter Milk, mean of group (non-mastitic cows; milking 3 (before treatments)): 23 X1000; Somatic Cell Count of Quarter Milk, mean of group (non-mastitic cows; milking 4 (before first treatment)): 21 X1000; Somatic Cell Count of Quarter Milk, mean of group (non-mastitic cows; milking 5, infusions 30 mg/10 ml after 4th, 5th, 6th milkings): 54 X1000; Somatic Cell Count of Quarter Milk, mean of group (non-mastitic cows; milking 6): 187 X1000; Somatic Cell Count of Quarter Milk, mean of group (non-mastitic cows; milking 7): 300 X1000; Somatic Cell Count of Quarter Milk, mean of group (non-mastitic cows; milking 8): 148 X1000; Somatic Cell Count of Quarter Milk, mean of group (non-mastitic cows; milking 9): 106 X1000; Somatic Cell Count of Quarter Milk, mean of group (non-mastitic cows; milking 10): 82 X1000; Somatic Cell Count of Quarter Milk, mean of group (non-mastitic cows; milking 11): 103 X1000; Somatic Cell Count of Quarter Milk, mean of group (non-mastitic cows; milking 12): 81 X1000; Somatic Cell Count of Quarter Milk, mean of group (non-mastitic cows; milking 13): 60 X1000; Somatic Cell Count of Quarter Milk, mean of group (non-mastitic cows; milking 14): 36 X1000; Somatic Cell Count of Quarter Milk, mean of group (non-mastitic cows; milking 15): 53 X1000; Somatic Cell Count of Quarter Milk, mean of group (non-mastitic cows; milking 16): 37 X1000; Somatic Cell Count of Quarter Milk, mean of group (non-mastitic cows; milking 17): 40 X1000; Somatic Cell Count of Quarter Milk, mean of group (non-mastitic cows; milking 18): 41 X1000; antimicrobial activity compared with control, untreated nisin [4]: not substantially different
